Target: the molecule itself
Assay: EGS crosslinking of recombinant protein, SDS-PAGE, immunoblot

| Protein | binding result |
| --- | --- |
| recombinant ΔC-IKK-γ (1-300) (other, not shown: small tags and cut ends, also called C-terminal truncation) MNRHLWKSQLCEMVQPSGGPAADQDVLGEESPLGKPAMLHLPSEQGAPETLQRCLEENQELRDAIRQSNQILRERCEELLHFQASQREEKEFLMCKFQEARKLVERLGLEKLDLKRQKEQALREVEHLKRCQQQMAEDKASVKAQVTSLLGELQESQSRLEAATKECQALEGRARAASEQARQLESEREALQQQHSVQVDQLRMQGQSVEAALRMERQAASEEKRKLAQLQVAYHQLFQEYDNHIKSSVVGSERKRGMQLEDLKQQLQQAEEALVAKQEVIDKLKEEAEQHKIVMETVPV | binds |
| recombinant ΔN-IKK-γ (134-419) (other, not shown: small tags and cut ends, also called N-terminal truncation) QMAEDKASVKAQVTSLLGELQESQSRLEAATKECQALEGRARAASEQARQLESEREALQQQHSVQVDQLRMQGQSVEAALRMERQAASEEKRKLAQLQVAYHQLFQEYDNHIKSSVVGSERKRGMQLEDLKQQLQQAEEALVAKQEVIDKLKEEAEQHKIVMETVPVLKAQADIYKADFQAERQAREKLAEKKELLQEQLEQLQREYSKLKASCQESARIEDMRKRHVEVSQAPLPPAPAYLSSPLALPSQRRSPPEEPPDFCCPKCQYQAPDMDTLQIHVMECIE | binds |

From patent US7189832 (University of California, dated 2007)
